In US9957297B2, “Template-fixed peptidomimetics as inhibitors of FPR1” (POLYPHOR AG, priority 2011, dated 2018):
*1 amine or outer side, *2 acyl side, *3 side chain or, on linkers, in order; H or OH if unused. Where a SMILES comes first, the peptide text is derived from it. Bridges are numbered along the chain shown (N, C = ends). [ ]: non-standard residue; d: D form. Pro(trans-4-NH2) = O=C([C@@H]1C[C@@H](N[*:3])CN1[*:1])[*:2]; Trp(5-OH) = N[C@@H](Cc1c[nH]c2ccc(O)cc12)C(=O)O; Oic = O=C(O)[C@@H]1C[C@@H]2CCCC[C@@H]2N1; Pro(4S-NH2) = N[C@@H]1CN[C@H](C(=O)O)C1; d(cisHyp) = O=C(O)[C@H]1C[C@@H](O)CN1; Hyp = O=C(O)[C@@H]1C[C@@H](O)CN1; Tic = O=C(O)[C@@H]1Cc2ccccc2CN1; Pip = O=C(O)[C@@H]1CCCCN1; Dab = NCC[C@H](N)C(=O)O

T1: FPR1 (Homo sapiens, UniProt P21462)
T1 construct: host or cells: CHO (PathHunter CHO-FPR1 β-arrestin cells)
T1 sequence (P21462 1-350): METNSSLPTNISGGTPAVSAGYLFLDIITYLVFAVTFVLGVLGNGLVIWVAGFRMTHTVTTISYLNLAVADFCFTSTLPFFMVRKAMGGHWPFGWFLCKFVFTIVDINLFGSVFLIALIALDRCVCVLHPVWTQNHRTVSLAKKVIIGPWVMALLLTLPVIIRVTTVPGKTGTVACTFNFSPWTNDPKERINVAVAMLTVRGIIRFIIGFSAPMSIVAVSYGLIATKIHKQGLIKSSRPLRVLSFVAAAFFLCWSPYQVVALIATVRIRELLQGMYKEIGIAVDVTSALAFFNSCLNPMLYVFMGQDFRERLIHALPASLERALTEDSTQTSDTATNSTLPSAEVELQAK

T2: Formyl-Peptide Receptor 1 (UniProt P21462 1-350, limits assumed)
T2 sequence (looked up): T1 sequence (P21462 1-350)

B1: cyclo(-Tyr-His-Lys-Cys-Trp-Gly-^DPro-Trp-Thr-Ile-Cys-Tyr-Glu-Lys-^DPro-Lys-) (peptide)
peptide: cyclo(YHKCWG[dP]WTICYEK[dP]K)
modifications: disulfide 4-11
SMILES: CC[C@H](C)[C@@H]1NC(=O)[C@H]([C@@H](C)O)NC(=O)[C@H](Cc2c[nH]c3ccccc23)NC(=O)[C@H]2CCCN2C(=O)CNC(=O)[C@H](Cc2c[nH]c3ccccc23)NC(=O)[C@@H]2CSSC[C@H](NC1=O)C(=O)N[C@@H](Cc1ccc(O)cc1)C(=O)N[C@@H](CCC(=O)O)C(=O)N[C@@H](CCCCN)C(=O)N1CCC[C@@H]1C(=O)N[C@@H](CCCCN)C(=O)N[C@@H](Cc1ccc(O)cc1)C(=O)N[C@@H](Cc1c[nH]cn1)C(=O)N[C@@H](CCCCN)C(=O)N2
B2: cyclo(-Tyr-His-Lys-Cys-His-Gly-^DPro-Trp-Thr-Ile-Cys-Tyr-Glu-Lys-^DPro-Pro((4R)NH2)-) (peptide)
peptide: cyclo(YHKCHG[dP]WTICYEK[dP][Pro(trans-4-NH2)])
modifications: disulfide 4-11
SMILES: CC[C@H](C)[C@@H]1NC(=O)[C@H]([C@@H](C)O)NC(=O)[C@H](Cc2c[nH]c3ccccc23)NC(=O)[C@H]2CCCN2C(=O)CNC(=O)[C@H](Cc2c[nH]cn2)NC(=O)[C@@H]2CSSC[C@H](NC1=O)C(=O)N[C@@H](Cc1ccc(O)cc1)C(=O)N[C@@H](CCC(=O)O)C(=O)N[C@@H](CCCCN)C(=O)N1CCC[C@@H]1C(=O)N1C[C@H](N)C[C@H]1C(=O)N[C@@H](Cc1ccc(O)cc1)C(=O)N[C@@H](Cc1c[nH]cn1)C(=O)N[C@@H](CCCCN)C(=O)N2
B3: cyclo(-Tyr-His-Lys-Cys-His-Gly-^DPro-Trp-Thr-Ile-Cys-Tyr-Glu-Lys-^DPro-Dab-) (peptide)
peptide: cyclo(YHKCHG[dP]WTICYEK[dP][Dab])
modifications: disulfide 4-11
SMILES: CC[C@H](C)[C@@H]1NC(=O)[C@H]([C@@H](C)O)NC(=O)[C@H](Cc2c[nH]c3ccccc23)NC(=O)[C@H]2CCCN2C(=O)CNC(=O)[C@H](Cc2c[nH]cn2)NC(=O)[C@@H]2CSSC[C@H](NC1=O)C(=O)N[C@@H](Cc1ccc(O)cc1)C(=O)N[C@@H](CCC(=O)O)C(=O)N[C@@H](CCCCN)C(=O)N1CCC[C@@H]1C(=O)N[C@@H](CCN)C(=O)N[C@@H](Cc1ccc(O)cc1)C(=O)N[C@@H](Cc1c[nH]cn1)C(=O)N[C@@H](CCCCN)C(=O)N2
B4: cyclo(-Tyr-His-Ala-Cys-Trp-Gly-^DPro-Trp-Thr-Ile-Cys-Tyr-Gln-Lys-^DPro-Ala-) (peptide)
peptide: cyclo(YHACWG[dP]WTICYQK[dP]A)
modifications: disulfide 4-11
SMILES: CC[C@H](C)[C@@H]1NC(=O)[C@H]([C@@H](C)O)NC(=O)[C@H](Cc2c[nH]c3ccccc23)NC(=O)[C@H]2CCCN2C(=O)CNC(=O)[C@H](Cc2c[nH]c3ccccc23)NC(=O)[C@@H]2CSSC[C@H](NC1=O)C(=O)N[C@@H](Cc1ccc(O)cc1)C(=O)N[C@@H](CCC(N)=O)C(=O)N[C@@H](CCCCN)C(=O)N1CCC[C@@H]1C(=O)N[C@@H](C)C(=O)N[C@@H](Cc1ccc(O)cc1)C(=O)N[C@@H](Cc1c[nH]cn1)C(=O)N[C@@H](C)C(=O)N2
B5: cyclo(-Tyr-His-Lys-Cys-His-Gly-^DPro-Trp-Thr-Ile-Cys-Tyr-Glu-Lys-^DPro-Lys-) (peptide)
peptide: cyclo(YHKCHG[dP]WTICYEK[dP]K)
modifications: disulfide 4-11
SMILES: CC[C@H](C)[C@@H]1NC(=O)[C@H]([C@@H](C)O)NC(=O)[C@H](Cc2c[nH]c3ccccc23)NC(=O)[C@H]2CCCN2C(=O)CNC(=O)[C@H](Cc2c[nH]cn2)NC(=O)[C@@H]2CSSC[C@H](NC1=O)C(=O)N[C@@H](Cc1ccc(O)cc1)C(=O)N[C@@H](CCC(=O)O)C(=O)N[C@@H](CCCCN)C(=O)N1CCC[C@@H]1C(=O)N[C@@H](CCCCN)C(=O)N[C@@H](Cc1ccc(O)cc1)C(=O)N[C@@H](Cc1c[nH]cn1)C(=O)N[C@@H](CCCCN)C(=O)N2
B6: cyclo(-Tyr-His-Ala-Cys-His-Gly-^DPro-Trp-Thr-Ile-Cys-Tyr-Gln-Lys-^DPro-Trp-) (peptide)
peptide: cyclo(YHACHG[dP]WTICYQK[dP]W)
modifications: disulfide 4-11
SMILES: CC[C@H](C)[C@@H]1NC(=O)[C@H]([C@@H](C)O)NC(=O)[C@H](Cc2c[nH]c3ccccc23)NC(=O)[C@H]2CCCN2C(=O)CNC(=O)[C@H](Cc2c[nH]cn2)NC(=O)[C@@H]2CSSC[C@H](NC1=O)C(=O)N[C@@H](Cc1ccc(O)cc1)C(=O)N[C@@H](CCC(N)=O)C(=O)N[C@@H](CCCCN)C(=O)N1CCC[C@@H]1C(=O)N[C@@H](Cc1c[nH]c3ccccc13)C(=O)N[C@@H](Cc1ccc(O)cc1)C(=O)N[C@@H](Cc1c[nH]cn1)C(=O)N[C@@H](C)C(=O)N2

Experiments:
FPR1 = biological target: T1, FPR1; assay: FPR1 β-arrestin recruitment assay (PathHunter CHO-FPR1, antagonistic mode); assay type: cell-based; details: CHO FPR1 β-arrestin cells; antagonistic assay vs reference agonist fMLF at its EC80; 60 min preincubation
Description: 2.2 FPR1 β-Arrestin Recruitment Assay
The PathHunter CHO—FPR1 (DiscoverX) assay was performed according to the manufacturer's protocol. In brief, CHO FPR1 β-arrestin cells were seeded at a density of 9000 cells per well in 20 μl of Ham's F12 medium (Invitrogen) in black 384-well culture plates and incubated overnight at 37° C. in a humidified atmosphere with 5% CO2. The next day, serial dilutions of the β-hairpin peptidomimetics of this invention have been prepared in DMSO and subsequently diluted in HBSS buffer supplemented with 20 mM Hepes and 0.1% BSA.
For antagonistic assay, 5 μl of compound solution or buffer was added to the cells with a final DMSO concentration of 0.5% (v/v). The plate was incubated for 60 min at 37° C. with 5% CO2 before addition of […] of the reference agonist fMLF peptide (Sigma-Aldrich) at its EC80 concentration. After 90 min of incubation at 37° C. with 5% CO2, 15 μl of beta-Glo detection reagent (Promega) were added. Reaction was developed for 20 min at room temperature and chemiluminescence was measured with a Victor2V (Perkin Elmer) luminescence reader.

[1] = biological target: T2, Formyl-Peptide Receptor 1; assay: cell-based or functional assay

Row | Molecule | IC50 (FPR1) [nM] | β-Arrestin IC50 [1] [nM]
1 | CC[C@H](C)[C@@H]1NC(=O)[C@H]([C@@H](C)O)NC(=O)[C@H](Cc2c[nH]c3ccccc23)NC(=O)[C@@H](C)NC(=O)CNC(=O)[C@H](Cc2c[nH]cn2)NC(=O)[C@@H]2CSSC[C@H](NC1=O)C(=O)N[C@@H](Cc1ccc(O)cc1)C(=O)N[C@@H](CCC(=O)O)C(=O)N[C@@H](CCCCN)C(=O)N1CCC[C@@H]1C(=O)N1CCC[C@H]1C(=O)N[C@@H](Cc1ccc(O)cc1)C(=O)N[C@@H](Cc1c[nH]cn1)C(=O)N[C@@H](CCCCN)C(=O)N2 [compound 71, cyclo(-Tyr-His-Lys-Cys-His-Gly-^DAla-Trp-Thr-Ile-Cys-Tyr-Glu-Lys-^DPro-Pro-)] (cyclo(YHKCHG[dA]WTICYEK[dP]P); disulfide 4-11) | 77 ± 4 | –
2 | CC[C@H](C)[C@@H]1NC(=O)[C@H]([C@@H](C)O)NC(=O)[C@H](Cc2c[nH]c3ccccc23)NC(=O)[C@H]2CCCN2C(=O)CNC(=O)[C@H](Cc2c[nH]cn2)NC(=O)[C@@H]2CSSC[C@H](NC1=O)C(=O)N[C@@H](Cc1ccc(O)cc1)C(=O)N[C@@H](CCC(=O)O)C(=O)N[C@@H](CCCCN)C(=O)N[C@H](CCCCN)C(=O)N[C@@H](CCC(=O)O)C(=O)N[C@@H](Cc1ccc(O)cc1)C(=O)N[C@@H](Cc1c[nH]cn1)C(=O)N[C@@H](CCCCN)C(=O)N2 [compound 5, cyclo(-Tyr-His-Lys-Cys-His-Gly-^DPro-Trp-Thr-Ile-Cys-Tyr-Glu-Lys-^DLys-Glu-)] (cyclo(YHKCHG[dP]WTICYEK[dK]E); disulfide 4-11) | 124 ± 67 | –
3 | CC[C@H](C)[C@@H]1NC(=O)[C@H]([C@@H](C)O)NC(=O)[C@H](Cc2c[nH]c3ccccc23)NC(=O)[C@H]2CCCN2C(=O)CNC(=O)[C@H](Cc2c[nH]cn2)NC(=O)[C@@H]2CSSC[C@H](NC1=O)C(=O)N[C@@H](Cc1ccc(O)cc1)C(=O)N[C@@H](CCC(=O)O)C(=O)N[C@@H](CCCCN)C(=O)N1CCC[C@@H]1C(=O)N1CCC[C@H]1C(=O)N[C@@H](Cc1ccc(O)cc1)C(=O)N[C@@H](Cc1c[nH]cn1)C(=O)N[C@@H](C)C(=O)N2 [compound 30, cyclo(-Tyr-His-Ala-Cys-His-Gly-^DPro-Trp-Thr-Ile-Cys-Tyr-Glu-Lys-^DPro-Pro-)] (cyclo(YHACHG[dP]WTICYEK[dP]P); disulfide 4-11) | 189 ± 79 | –
4 | cyclo(YHKCHG[dP]WTICYEK[dP][Oic]) (disulfide 4-11) [cyclo(-Tyr-His-Lys-Cys-His-Gly-^DPro-Trp-Thr-Ile-Cys-Tyr-Glu-Lys-^DPro-Oic-)] | – | 267
5 | cyclo(YHKCHG[dP]WTICYEK[dP][Hyp]) (disulfide 4-11) [cyclo(-Tyr-His-Lys-Cys-His-Gly-^DPro-Trp-Thr-Ile-Cys-Tyr-Glu-Lys-^DPro-Pro((4R)OH)-)] | – | 376
6 | B1 | – | 54
7 | B2 | – | 82
8 | B3 | – | 189
9 | cyclo(YHKC[Trp(5-OH)]G[dP]WTICYEK[dP]P) (disulfide 4-11) [cyclo(-Tyr-His-Lys-Cys-Trp(5OH)-Gly-^DPro-Trp-Thr-Ile-Cys-Tyr-Glu-Lys-^DPro-Pro-)] | – | 13
10 | B4 | – | 188
11 | B5 | – | 109
12 | cyclo(YH[Dab]CHG[dP]WTICYEK[dP]P) (disulfide 4-11) [cyclo(-Tyr-His-Dab-Cys-His-Gly-^DPro-Trp-Thr-Ile-Cys-Tyr-Glu-Lys-^DPro-Pro-)] | – | 290
13 | cyclo(YHKCHG[d(cisHyp)]WTICYEK[dP]P) (disulfide 4-11) [cyclo(-Tyr-His-Lys-Cys-His-Gly-^DPro((4R)OH)-Trp-Thr-Ile-Cys-Tyr-Glu-Lys-^DPro-Pro-)] | – | 485
14 | B6 | – | 147
15 | cyclo(YHKCHG[dP]WTICYEK[dP][Pro(4S-NH2)]) (disulfide 4-11) [cyclo(-Tyr-His-Lys-Cys-His-Gly-^DPro-Trp-Thr-Ile-Cys-Tyr-Glu-Lys-^DPro-Pro((4S)NH2)-)] | – | 530
16 | cyclo(YHKCHG[dP]WTICYEK[dP][Tic]) (disulfide 4-11) [cyclo(-Tyr-His-Lys-Cys-His-Gly-^DPro-Trp-Thr-Ile-Cys-Tyr-Glu-Lys-^DPro-Tic-)] | – | 115
17 | cyclo(YHKCHG[dP]WTICYEK[dP][Pip]) (disulfide 4-11) [cyclo(-Tyr-His-Lys-Cys-His-Gly-^DPro-Trp-Thr-Ile-Cys-Tyr-Glu-Lys-^DPro-Pip-)] | – | 161
